Measurements reported in patent publication US20220127304A1.

Experiments:
human IgG1 (human) = experiment: SPR, Biacore X-100, human IgG1 on the chip, single cycle kinetics
[1] = target: human serum-derived IgG polyclonal antibody (WAKO) (human); experiment: affinity column breakthrough, scFv immobilized on HiTrap NHS-activated HP (33.6 mg)
[2] = target: human serum-derived IgG polyclonal antibody (WAKO) (human); experiment: affinity column breakthrough, scFv immobilized on HiTrap NHS-activated HP; average of Reference Examples 1-1 and 1-2
[3] = target: human serum-derived IgG polyclonal antibody (WAKO) (human); experiment: affinity column breakthrough, scFv immobilized on HiTrap NHS-activated HP

Row | Kd (human IgG1 (human)) | koff (human IgG1 (human)) | kon (human IgG1 (human)) | [10% DBC (mg/mL) at flow rate of 1.0 mL/min]/[amount of protein immobilized on column (mg)] [1] | [10% DBC (mg/mL) at flow rate of 1.0 mL/min]/[amount of protein immobilized on column (mg)] [2] | [10% DBC (mg/mL) at flow rate of 1.0 mL/min]/[amount of protein immobilized on column (mg)] [3] | Binder
1 | 0.79 nM | 6.2e-05 s⁻¹ | 79000 M⁻¹ s⁻¹ | 0.777 (mg/mL)/mg | – | – | R3-26 repCK+ori6K (scFv) scFv: QEQLVESGGGLVKPGGTLTLTCTVSGIDLSSYAMSWVRQVPGKGLEWIGIIGSGGGTAYANWARGRFTISRTSSTTVDLRMTSLTTEDTATYFCATDYGIYGYAYGHLWGPGTLVTVTKGGGGSGGGGSGGGGSELVMTQTASPVSAKVGGTVTINCQASQSISTALAWYQQKPGQPPRLLIYDASTLASGVSSRFSGSGSGTEFTLTISDLESADAATYYCQTYFGSDTDNAFGEGTEVEIKGSAAALEHHHHHH
2 | 0.053 nM | 1.6e-05 s⁻¹ | 300000 M⁻¹ s⁻¹ | – | – | – | R3-26 repCK+ori6K+VH4KVL4K (scFv) scFv: QEQLVESGGGLVKPGGTLTLTCTVSGIDLSSYAMSWVRQVPGKGLEWIGIIGSGGGTAYANWARGRFTISRTSSTTVDLRMTSLTTEDTATYFCATDYGIYGYAYGHLWGPGTLVTVTKKKKKGGGGSGGGGSGGGGSELVMTQTASPVSAKVGGTVTINCQASQSISTALAWYQQKPGQPPRLLIYDASTLASGVSSRFSGSGSGTEFTLTISDLESADAATYYCQTYFGSDTDNAFGEGTEVEIKKKKKGSAAALEHHHHHH
3 | 2.1 nM | 4.3e-05 s⁻¹ | 21000 M⁻¹ s⁻¹ | – | 0.736 (mg/mL)/mg | – | single-chain antibody R3-26 (scFv) scFv: QEQLVESGGGLVKPGGTLTLTCTVSGIDLSSYAMSWVRQVPGKGLEWIGIIGSGGGTAYANWAKGRFTISKTSSTTVDLKMTSLTTEDTATYFCATDYGIYGYAYGHLWGPGTLVTVTSGGGGSGGGGSGGGGSELVMTQTASPVSAAVGGTVTIKCQASQSISTALAWYQQRPGQPPKLLIYDASTLASGVSSRFKGSGSGTEFTLTISDLECADAATYYCQTYFGSDTDNAFGEGTEVEITGSAAALEHHHHHH
4 | 1.6 nM | 9.1e-05 s⁻¹ | 56000 M⁻¹ s⁻¹ | – | – | 0.625 (mg/mL)/mg | R3-26 repCK+K (scFv) scFv: QEQLVESGGGLVTPGGTLTLTCTVSGIDLSSYAMSWVRQVPGEGLEWIGIIGSGGGTAYANWARGRFTISRTSSTTVDLRMTSLTTEDTATYFCATDYGIYGYAYGHLWGPGTLVTVTSGGGGSGGGGSGGGGSELVMTQTASPVSAAVGGTVTINCQASQSISTALAWYQQRPGQPPRLLIYDASTLASGVSSRFSGSGSGTEFTLTISDLESADAATYYCQTYFGSDTDNAFGEGTEVEITGSAAAGGGGSKIEHHHHHH
